The text below walks through data of patent US5821227A, “Modulators of cytokines of the tgf β superfamily” (Mount Sinai Hospital Corporation, priority 1995, dated 1998).

What is called Kd is a measure of binding affinity in units of concentration. For orientation: IC50 means the concentration that inhibits the measured activity by half.

One test addresses T1, BMP-4 (Homo sapiens, UniProt P12644).
T1 sequence (P12644 293-408): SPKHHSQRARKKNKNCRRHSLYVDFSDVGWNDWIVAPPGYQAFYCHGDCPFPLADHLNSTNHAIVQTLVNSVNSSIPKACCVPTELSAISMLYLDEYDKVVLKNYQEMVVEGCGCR
The test can be described thus: BIAcore surface plasmon resonance binding to immobilized BMP-4. The settings on record: ligand BMP-4; for Kd: KD = kdiss/kass. As to the method:
(§1) In this system, a purified protein serving as the ligand is covalently coupled to a carboxymethylated dextran surface, and binding molecules (ie. the analyte) are passed in a fluid phase across the surface. Binding of the analyte to ligand causes a change in reflected light which is directly proportional to mass bound, and is measured in arbitrary response units (R.U.). Analyte-ligand binding is observed as both increasing response with time during the injection of analyte, and the difference in the position of the baseline before and after injection.
(§2) Schuster, R. V. Swanson, L. A. Alex, R. B. Bourret, M. I. Simon, Nature 365, 343 (1993). 1000 R.U. equals approximately 1 ng/mm^2. The running buffer was 20 mM Hepes (pH7.2), 150 mM NaCl and the flow rate for all sensorgrams was 3 μl/min. Injection volumes were 36 μl for FIG. 2, 4 and 5 and 45 μl for FIG. 3. […] Protein concentrations in each experiment were (FIGS. 2 and 3), 2, 5, 10, 20, 30, 40 μM; (FIG. 4), 0.21, 0.31, 0.41, 0.62, 0.82, 1.24 μM; (FIG. 5), 0.22, 0.29, 0.44, 0.59, 0.88 μM. R.U. for the immobilized cytokine in each experiment was 2850 R.U. for FIGS. 2 and 3; 7450 R.U. for FIG. 4, and 5300 R.U., for FIG. 5 respectively.
(§3) Data was analyzed using the BIA-evaluation software (Pharmacia Biosensor). The association rate constant, kass, was calculated by first plotting the change in response with time versus response (ie. dR/dT vs R). When the slope of the line from this graph is plotted versus analyte concentration (i.e d(dR/dT)/dR vs C), kass is obtained from the slope of the line. The dissociation rate constant, kdiss, is obtained during the decrease in response with time after analyte injection is discontinued. Specifically, kdiss was obtained from the slope of the line in a plot of ln(Rt1 /Rtn) vs time. The affinity constants were calculated from KD =kdiss /kass. Variance for kass is standard error of the linear regression plot, and for kdiss values are the mean±range of 3 or more independent injections.
On the technique in general: SPR reads the build-up and loss of mass on a sensor chip optically.

The target of a further test is T2, BMP-2 (Homo sapiens, UniProt P12643).
T2 construct: purchased Genetics Institute, Cambridge, Mass; (a gift, not bought)
T2 sequence (P12643 283-396): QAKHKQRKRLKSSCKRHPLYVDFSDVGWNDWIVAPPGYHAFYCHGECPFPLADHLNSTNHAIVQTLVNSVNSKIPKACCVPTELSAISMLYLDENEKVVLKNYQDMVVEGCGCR
In words: BIAcore surface plasmon resonance binding to immobilized BMP-2. The note with it: for Kd: ligand BMP-2, KD = kdiss/kass; for kdiss / kass: ligand BMP-2 immobilized; for kass: ± standard error of linear regression. As to the method:
as §1, §2, §3

Test [1] addresses T3, TGF-β1 (Homo sapiens, UniProt P01137).
T3 construct: purchased Collaborative Research (Bedford, Mass.)
The test can be described thus: Mv1Lu growth inhibition assay: neutralization of the antiproliferative activity of TGF-β1 (3H-thymidine incorporation). Type of test: cell-based. The settings on record: Mv1Lu cells; for IC50 / Maximal effect, percent neutralization: TGF-β1 12 pM; for IC50: 3H-thymidine incorporation, read-out: half-maximal inhibition (IC50) of the anti-proliferative activity of TGF-β1; for Maximal effect, percent neutralization: 0% = TGF-β1 alone, 100% = no additions. As for the experimental part: Mv1Lu cells were seeded at 20,000 cells/well in a 96 well plate containing 0.2% FCS in α-MEM and incubated with the indicated concentrations of proteins for 18 hr. […] Before use, bovine thyroglobulin was spun twice in a centricon (M.W. cutoff of 10,000 Da) micro-concentrator (Amicon, Beverly, Mass.) to remove any excess Iodine and T3/T4 thyroid hormones.

Test [2] deals with T3, TGF-β1. The test can be described thus: BIAcore surface plasmon resonance binding to immobilized TGF-β1. The note with it: for binding to immobilized TGF-β1 (in words): BIAcore sensorgram. As to the method:
as §1, §2, §3

In another test the target is T4, TGF-β2 (Homo sapiens, UniProt P61812).
T4 sequence (P61812 303-414 limits assumed): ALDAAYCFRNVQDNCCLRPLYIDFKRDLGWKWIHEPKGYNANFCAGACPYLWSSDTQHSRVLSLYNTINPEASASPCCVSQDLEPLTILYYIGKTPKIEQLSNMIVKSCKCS
The test can be described thus: BIAcore surface plasmon resonance binding to TGF-β2. The note with it: ligand TGF-β2; for Kd: KD = kdiss/kass; for kass: ± standard error of linear regression. As to the method: as §1, §2, §3

Another test has as its target T5, BMP-6 (Homo sapiens, UniProt P22004).
T5 sequence (P22004 375-513): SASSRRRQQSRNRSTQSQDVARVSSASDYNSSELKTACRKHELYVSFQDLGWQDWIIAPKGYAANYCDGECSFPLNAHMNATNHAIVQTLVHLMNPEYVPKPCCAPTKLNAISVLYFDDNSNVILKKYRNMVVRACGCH
In words: BIAcore surface plasmon resonance binding to immobilized BMP-6. The note with it: ligand BMP-6. As to the method:
as §1, §2, §3

Setting [3] is: ± standard error of linear regression.
Setting [4] is: ligand TGF-β1, KD = kdiss/kass, read-out: KD.
The mark [5] stands for this setting: ligand TGF-β1 immobilized, ± standard error of linear regression.

Like-named read-outs stand apart in the source and are kept apart here. Where only a bound is given, the exact number is not on record here.

T3 sequence (P01137 279-390 limits assumed): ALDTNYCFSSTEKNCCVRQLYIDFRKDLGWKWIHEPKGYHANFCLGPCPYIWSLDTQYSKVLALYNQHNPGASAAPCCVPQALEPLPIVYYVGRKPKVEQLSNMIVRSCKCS

For the molecule “Thyroglobulin: Bovine thyroglobulin purchased from Sigma, containing the TRH1 domain”, in the test with BMP-4, the kdiss amounted to 0.0011 s⁻¹ and binding was put at a Kd of 20 nM. The kass in the test with BMP-4 (setting [3]) came out at 54000 ± 7000 M⁻¹ s⁻¹. Besides, in the test with BMP-2, the dissociation constant Kd was 3.1 nM, the kdiss was 0.0001 s⁻¹ and the kass amounted to 32000 ± 2000 M⁻¹ s⁻¹. In addition, in the test with TGF-β1 [1], the “IC50 for inhibition of TGF-β1 activity, fold lower than for fetuin” value is 20 fold; the 50% inhibitory concentration (IC50) is 220 nM; the “Maximal effect, percent neutralization” value was “approximately 150%”. In addition, in the test with TGF-β1 [2] (setting [4]), the Kd was 680 nM. Besides, in the test with TGF-β1 [2] (ligand TGF-β1 immobilized), the “kdiss (dissociation rate)” value worked out at 0.0019 s⁻¹. The “kass (association rate)” value in the test with TGF-β1 [2] (setting [5]) came out at 2800 ± 1000 M⁻¹ s⁻¹. For the same molecule, in the test with TGF-β2, the kdiss worked out at 0.005 s⁻¹, binding was characterised by a dissociation constant (Kd) of 3800 nM and the kass was found to be 1300 ± 600 M⁻¹ s⁻¹.
Regarding “Fetuin: Bovine fetuin, glycoprotein from fetal calf serum (ammonium sulfate fractionation, gel filtration), purchased from Sigma”, the kdiss in the test with BMP-4 was 0.00058 s⁻¹; with BMP-6, 0.0025 s⁻¹; with BMP-2, 6.2e-05 s⁻¹; with BMP-2 (listed as fetuin) it was 6.2e-05 s⁻¹; with TGF-β2, 0.0032 s⁻¹. Further, the Kd is 140 nM with BMP-4; 860 nM with BMP-6 (KD = kdiss/kass); 36 nM with BMP-2; 4600 nM in the test with TGF-β1 [2] (ligand TGF-β1, steady-state, read-out: KD, Scatchard type analysis for steady-state binding); 5800 nM with TGF-β2. The kass was determined as 2900 ± 500 M⁻¹ s⁻¹ with BMP-6 (setting [3]), 1700 ± 300 M⁻¹ s⁻¹ in the test with BMP-2, 1700 M⁻¹ s⁻¹ with BMP-2 (listed as fetuin) and 550 ± 120 M⁻¹ s⁻¹ in the test with TGF-β2. Also, the half-maximal inhibitory concentration (IC50) with TGF-β1 [1] is 4200 nM. Moreover, in the test with TGF-β1 [1], the “Maximal effect, percent neutralization” value is given as “approximately 150%”. For the same molecule, the “kdiss (dissociation rate)” value in the test with TGF-β1 [2] (ligand TGF-β1 immobilized) amounted to 0.0016 s⁻¹. Moreover, the “kass (association rate)” value with TGF-β1 [2] (setting [5]) was determined as 670 ± 400 M⁻¹ s⁻¹.
`CC[C@H](C)[C@H](NC(=O)[C@H](CC(N)=O)NC(=O)[C@H](CCC(=O)O)NC(=O)[C@H](CC(=O)O)NC(=O)[C@H](CC(N)=O)NC(=O)[C@H](CCCCN)NC(=O)[C@H](CCCNC(=N)N)NC(=O)[C@H](Cc1c[nH]c2ccccc12)NC(=O)[C@@H](NC(=O)[C@H](C)NC(=O)[C@@H](NC(=O)[C@@H](N)CSCC(N)=O)C(C)C)C(C)C)C(=O)N[C@H](C(=O)N[C@@H](CC(C)C)C(=O)N[C@@H](CCC(=O)O)C(=O)N[C@H](C(=O)N[C@H](C(=O)N[C@@H](CSCC(N)=O)C(=O)N[C@@H](Cc1c[nH]cn1)C(=O)N[C@@H](CC(=O)O)C(=O)O)C(C)C)[C@@H](C)O)[C@@H](C)O` [TRH1b (TβRII) (reduced & alkylated)]: the dissociation constant (Kd) at TGF-β1 [2] (setting [4]) is more than 10000 nM.
On to “reduced and alkylated fetuin: Fetuin, reduced and alkylated, compared to native fetuin”, for which the “binding to immobilized BMP-2 (in words)” value with BMP-2 (BIAcore sensorgram) was “diminished binding”. Moreover, the “binding to immobilized TGF-β1 (in words)” value in the test with TGF-β1 [2] is on record as “diminished binding”.
Consider “human transferrin: Non-binding control passed over immobilized TGF-β1 [reference compound]”, for which the “binding to immobilized TGF-β1 (in words)” value with TGF-β1 [2] is given as “non-binding”.
Take `CC[C@H](C)[C@@H]1NC(=O)[C@H](CC(N)=O)NC(=O)[C@H](CCC(=O)O)NC(=O)[C@H](CC(=O)O)NC(=O)[C@H](CC(N)=O)NC(=O)[C@H](CCCCN)NC(=O)[C@H](CCCNC(=N)N)NC(=O)[C@H](Cc2c[nH]c3ccccc23)NC(=O)[C@H](C(C)C)NC(=O)[C@H](C)NC(=O)[C@H](C(C)C)NC(=O)[C@@H](N)CSSC[C@@H](C(=O)N[C@@H](Cc2c[nH]cn2)C(=O)N[C@@H](CC(=O)O)C(=O)O)NC(=O)[C@H](C(C)C)NC(=O)[C@H]([C@@H](C)O)NC(=O)[C@H](CCC(=O)O)NC(=O)[C@H](CC(C)C)NC(=O)[C@H]([C@@H](C)O)NC1=O` [TRH1b (TβRII)]: the koff on TGF-β1 [2] (ligand TGF-β1 immobilized, read-out: kdiss (dissociation rate)) turned out to be 0.0019 s⁻¹. Also, the kon at TGF-β1 [2] (ligand TGF-β1 immobilized, ± standard error of linear regression, read-out: kass (association rate)) is 3700 M⁻¹ s⁻¹.
